Experimental data published in the supplement of paper PMC12042874.
± gives the uncertainty stated by the source.

Test: amyloid nucleation score (Sup35N fusion, yeast selection) (log enrichment); library NNK3; higher = more nucleation; inactive = no reads after selection
How it was run: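 Nucleation score is defined as the DiMSum log enrichment of output over input reads, with centring on the mode score of non-aggregating sequences. A minimum of 100 input reads was required for each sequence. Reads came from Illumina sequencing of plasmid inserts from psi-negative yeast expressing Sup35N fused to peptides of 20 random codons, induced with 100 μM copper sulfate for 24 hours and grown 7 days at 30°C on medium lacking adenine and uracil.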

| Substance | amyloid nucleation score |
| --- | --- |
| VMWPIGSCDRE | inactive |
| VNDPEAR | -0.391 ± 1.2 |
| VNDSAGVKLAVDCERTRKGG | -0.5 ± 0.98 |
| VNDVLIRKCLAMESNVNEAI | inactive |
| VNFILSTAHLL | inactive |
| VNIRLMVKIRFDSVLRILPY | 0.509 ± 0.31 |
| VNLFHSYCMAISRIITISSL | inactive |
| VNSMSC | inactive |
| VNWHNIKVTEDVKVG | inactive |
| VNYDSVLYLVFLCIYLHKNR | inactive |
| VPSNLGKPHMCRRSRDYFTA | inactive |
| VPSVYKKRWWYHKPWHNRHV | inactive |
| VPTVLDRFDMMHVSEYRDGA | inactive |
| VQCRSHWHWRRPGPEARSVW | inactive |
| VQFLRFQVHELFSRPFIA | inactive |
| VQGKALAS | inactive |
| VQGSTIGG | inactive |
| VQGTTVDMDYYFTVSCLHAK | inactive |
| VQKSMR | inactive |
| VQPVGSSKGVRGVE | 0.983 ± 0.2 |
| VQWSVSFLSVVGVPWYRRLV | inactive |
| VRCVVGITVFGIHERVTSER | 0.169 ± 0.61 |
| VRDIRAIL | -0.551 ± 1.1 |

| Substance | amyloid nucleation score |
| --- | --- |
| VRFTHKCSLG | inactive |
| VRGGHSTTGI | inactive |
| VRGYLYRCKAGSLACHPDPG | inactive |
| VRIMCMSWIVVWHYMC | inactive |
| VRLRDLN | inactive |
| VRLRVEYAKSEWKMIFGEFY | inactive |
| VRLSRAVILLAVIHLRWGLT | inactive |
| VRLYADNNLSAITKLLCPKN | inactive |
| VRMFRDLLYPAEYLS | inactive |
| VRNEYACNCTYMRIARLDE | 0.319 ± 0.29 |
| VRNLVHHPYAFL | inactive |
| VRNRWA | inactive |
| VRRVQSLRPPAHVSLAPYRA | inactive |
| VRSTFNCITLRTLAIRSFYH | inactive |
| VRTVFCNIFFEFRGGSRNWA | 1.79 ± 0.11 |
| VRVILNAGLKNGRKVLNLGR | inactive |
| VRVLDWNLMHFFFSYKRFLQ | -0.094 ± 0.25 |
| VRVLMSL | -0.087 ± 0.45 |
| VRWWWLNF | inactive |
| VRYFSKSGGRNPNVGRVVPV | inactive |
| VRYSPDRKFGETCIKQAVMT | inactive |
| VSAAYLRTVRQ | inactive |
| VSEFFFP | inactive |

| Substance | amyloid nucleation score |
| --- | --- |
| VSEMCIMSCTHIVGDCSWIR | inactive |
| VSFEYTGEYLCSNVRATDLL | 0.366 ± 0.69 |
| VSGQKVSCMDE | inactive |
| VSIKSRLRCLSVVQDNSRCV | inactive |
| VSLGVNRGG | inactive |
| VSLVWDMHWHSYRVSSELCR | inactive |
| VSNHSIDIGRLRLGFTC | inactive |
| VSNLLIKVTRHASYDQSS | inactive |
| VSRPS | inactive |
| VSRVTRLNKFISVVHDSCEV | inactive |
| VSSRECMLRPLPDTKTRLAA | inactive |
| VSSSSEVHCYSSFMYISKSP | 0.824 ± 0.16 |
| VSTWVQTPGTHMLGVIVYFE | inactive |
| VSYCAWSFEG | inactive |
| VTAFATNKVC | inactive |
| VTAFCWGLQRIVGIECSMLE | inactive |
| VTFIRQGLEIVSVVLSICKE | inactive |
| VTFMIDFRASWALFHDRWWC | inactive |
| VTFSCLYVFFYRQVIRCFGM | 0.059 ± 0.26 |
| VTGIIRRIYLLF | inactive |
| VTHLPTDIGMC | 0.894 ± 0.12 |
| VTLRCNGDMVYHYLPCGVLR | inactive |
| VTMFLGQWCSHSIVAMCIEG | inactive |

| Substance | amyloid nucleation score |
| --- | --- |
| VTMVSYYTCGEHNKVNILMQ | 1.42 ± 0.097 |
| VTSESSSMGLTLSF | inactive |
| VTSPFTPSI | -0.336 ± 0.63 |
| VTVEALILNN | inactive |
| VTVLQM | inactive |
| VTVSYIVNGMTSLFQVDVAS | inactive |
| VTYNTSSGRVYGTGHNWFQG | inactive |
| VVATTLEFMWRHMGTYFWGI | inactive |
| VVCLYILHIPCSVRRHTLAD | inactive |
| VVDGSRCPPLSLSSDMWAR | inactive |
| VVEGSILACVNRGGKKYYDC | inactive |
| VVFYTSGARDRICHMDVHRP | 0.113 ± 0.69 |
| VVGNVTGY | inactive |
| VVGSSIK | inactive |
| VVICILQLHQYFFNYVH | 2.11 ± 0.05 |
| VVITYSFRVQHV | inactive |
| VVKFFVWLDVFYVWGLAGII | inactive |
| VVLIFWWKSQGMSMIVFVIY | inactive |
| VVMMFVVIYIYALRRPY | 0.143 ± 0.25 |
| VVQRMG | -0.048 ± 1.1 |
| VVRCLLFVQLGCSKNLVAFQ | 1.12 ± 0.12 |
| VVRVHIRCTAFYKAPSYWGS | 0.987 ± 0.11 |
| VVSIYVGSYMSIICKS | 1.95 ± 0.059 |

| Substance | amyloid nucleation score |
| --- | --- |
| VVVSERVREMRDYNVLLRCT | inactive |
| VVYDVTVKKSLDIRFPLRIP | inactive |
| VVYTGTNGRLQDRA | inactive |
| VWCLFTSLSS | inactive |
| VWFGESAFRLVSELCIIKDV | inactive |
| VWLHNFLVMKLSMRNFGWVR | inactive |
| VWLSRRIVCFRLLVQLNSA | inactive |
| VYCLSHNCMITSDNVRSIIF | inactive |
| VYDWRGRVGD | inactive |
| VYFDDRTYRYRVAHIKFSFR | 2.94 ± 0.076 |
| VYGVTSHCTVRRELWAGSIM | inactive |
| VYIFLNEEPRVN | inactive |
| VYMVTDRGR | inactive |
| VYNGSFWRVNLVNF | 1.09 ± 0.095 |
| VYQGMYNKSAYC | inactive |
| VYQTFYAIV | inactive |
| VYRCVFWDVCAWCFKFR | 0.778 ± 0.14 |
| VYSLFKVELISILGRMKITK | inactive |
| WADIIKMGDVHVVDYYRKER | inactive |
| WAGLHRVRFES | -0.26 ± 0.42 |
| WASYDGPEKRRNHTRYYISM | inactive |
| WAYMVNFFRTNLICEGWFDG | -0.841 ± 2.5 |
| WCDDFWLYVVLGYGLCFVLC | inactive |

| Substance | amyloid nucleation score |
| --- | --- |
| WCFCFMCSFMTKFFHYLGS | inactive |
| WCSPQFRLSFYLGISNDHWC | 0.966 ± 0.09 |
| WDFDVSVIGLMYKFRSVELG | inactive |
| WDFFIGLLLYSIL | inactive |
| WDLGASYLTGMFWVRIVGLE | inactive |
| WDLRSCCDNVSTFEL | inactive |
| WDYKAGISSSLSAIGCLYGD | inactive |
| WEFLCFFAT | inactive |
| WFERCLCLLTTRIKYLFSAD | inactive |
| WFVRLLGSAFN | inactive |
| WFYGRLLPVPVLWIIRLKKG | 0.01 ± 0.59 |
| WGCALCSYDACRLES | 2.52 ± 0.068 |
| WGFVWRVFLLKMC | inactive |
| WGMTNSETGLVGWSLSKLLG | inactive |
| WGWGCLCMWYICYSCVYRDR | 0.708 ± 0.28 |
| WHDYTQRGVWAHGTALVWG | inactive |
| WHSWAFGTGCGSRTFEG | 0.526 ± 0.17 |
| WIFMSYWCVDLMPQLLHECW | inactive |
| WILSNRWKFHLVGLVIAFV | inactive |
| WIPTPVLCGRPNFYFY | inactive |
| WIRIIQLNVSERGNRVGSYC | 0.37 ± 0.5 |
| WISNTRCVLFVGN | inactive |
| WIVFMGDASCLSLLTWELFC | 1.25 ± 0.095 |

| Substance | amyloid nucleation score |
| --- | --- |
| WKALFSSTSCYTGVG | inactive |
| WKGMITFGI | inactive |
| WKNNRLNIIYQPLLGTQICK | inactive |
| WLFLLRPRAGSTHPSTHLDF | 0.823 ± 0.1 |
| WLGRTATQFNIC | inactive |
| WLHKH | inactive |
| WLKWFLRTCNMVKIFASPFF | inactive |
| WLLDSRDGMRRKRAPRRVFA | inactive |
| WLQGCRSRWAVVL | inactive |
| WLSLFVIMPCLWGFCSMDSN | 1.47 ± 0.11 |
| WLVAEFQTYPMTQHLYVSMR | inactive |
| WMHRAYWLSGVCRVLQVTNL | inactive |
| WNEAWWNNRLGLARMVVLLG | inactive |
| WNFIVFGFYLDGRILFISYL | -0.755 ± 0.7 |
| WNLYRFLNW | inactive |
| WNPFGRGWLTLPNMFHKTVI | inactive |
| WPDLQLLSSALPTPLQFSWL | inactive |
| WPLRGRSMLQWLSCHIQWAG | inactive |
| WRFFVVRKNSTSA | inactive |
| WRNENLPQSGRSMLVIFLLV | inactive |
| WRNMTI | inactive |
| WRRLEGSHA | inactive |
| WRRWQSRCGSLLRYSKETLN | inactive |
